This note sets out measurements from patent US20150374794A1 (Novo Nordisk, published 2015).

Numbered stars: 1 amine (or outer) side, 2 acyl side, 3 side chain; on linkers, the order of the positions; unused ones are H or OH. Square brackets hold non-standard residues; d marks the D form. Side chains are listed from the residue outwards. Ends that are not written are not given here. * marks the point of attachment. C18 diacid = O=C(O)CCCCCCCCCCCCCCCCC(=O)*; γGlu = O=C(O)[C@H](CCC(=O)[*:2])N[*:1]; Ac4c = NC1(C(=O)O)CCC1; AEEA = NCCOCCOCC(=O)O; Aib = CC(C)(N)C(=O)O

Test [1] concerns the target T1, human GLP-1 receptor (human, UniProt P43220 24-463).
T1 construct: whole, on cells; the potency assay used whole cells (clone FCW467-12A/KZ10-1)
The test can be described thus: displacement of 125I-GLP-1(7-36)NH2, membranes with human GLP-1R, SPA. The method, then:
The receptor binding of each compound to the human GLP-1 receptor was measured in a displacement binding assay. […] Each derivative was added in a series of concentrations to isolated membranes containing the human GLP-1 receptor and displacement of the labelled ligand was monitored. The receptor binding was reported as the concentration at which half of the labelled ligand was displaced from the receptor, the IC₅₀ value.
In general terms: Displacement assays read how much labelled ligand stays bound in the presence of the test substance.

Test [2] has as its target T2, human glucagon receptor (human, UniProt P47871 26-477). The test can be described thus: cell-based or functional assay.
Test [3] addresses T1, human GLP-1 receptor. Kind of test: cell-based or functional assay.
For test [4], the target named is T2, human glucagon receptor. Kind of test: displacement of 125I-glucagon, membranes with human glucagon receptor, SPA. Here is the method: The receptor binding of each compound to the human glucagon receptor was measured in a displacement binding assay. […] Each derivative was added in a series of concentrations to isolated membranes containing the human glucagon receptor and displacement of the labelled ligand is monitored. The receptor binding was reported as the concentration at which half of the labelled ligand is displaced from the receptor, the IC₅₀ value.

T2 sequence (P47871 26-477): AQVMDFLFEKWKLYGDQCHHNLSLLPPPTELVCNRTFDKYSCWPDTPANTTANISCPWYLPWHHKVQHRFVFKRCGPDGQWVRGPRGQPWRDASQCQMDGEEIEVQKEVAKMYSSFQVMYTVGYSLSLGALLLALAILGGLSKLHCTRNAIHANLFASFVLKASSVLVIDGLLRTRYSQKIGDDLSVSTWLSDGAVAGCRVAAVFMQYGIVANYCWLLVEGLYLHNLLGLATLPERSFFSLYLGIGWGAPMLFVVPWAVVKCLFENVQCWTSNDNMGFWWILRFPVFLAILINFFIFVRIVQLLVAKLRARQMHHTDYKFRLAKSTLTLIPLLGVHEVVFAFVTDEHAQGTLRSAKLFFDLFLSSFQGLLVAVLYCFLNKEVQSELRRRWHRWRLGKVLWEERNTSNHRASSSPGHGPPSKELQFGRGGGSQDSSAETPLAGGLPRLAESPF

B1: N^ε28-[2-[2-[2-[[2-[2-[2-[[(4S)-4-carboxy-4-[[(4S)-4-carboxy-4-[[(4S)-4-carboxy-4-(17-carboxyheptadecanoylamino)butanoyl]amino]butanoyl]amino]butanoyl]amino]eth … (peptide)
peptide: H[Aib]QGTFTSDVSRYLDLRRAQDFVQWLLK([AEEA-AEEA-γGlu-γGlu-γGlu-C18 diacid])T-NH2
modifications: N-terminus assumed
SMILES: CC(C)C[C@H](NC(=O)[C@H](CC(=O)O)NC(=O)[C@H](CC(C)C)NC(=O)[C@H](Cc1ccc(O)cc1)NC(=O)[C@H](CCCNC(=N)N)NC(=O)[C@H](CO)NC(=O)[C@@H](NC(=O)[C@H](CC(=O)O)NC(=O)[C@H](CO)NC(=O)[C@@H](NC(=O)[C@H](Cc1ccccc1)NC(=O)[C@@H](NC(=O)CNC(=O)[C@H](CCC(N)=O)NC(=O)C(C)(C)NC(=O)[C@@H](N)Cc1c[nH]cn1)[C@@H](C)O)[C@@H](C)O)C(C)C)C(=O)N[C@@H](CCCNC(=N)N)C(=O)N[C@@H](CCCNC(=N)N)C(=O)N[C@@H](C)C(=O)N[C@@H](CCC(N)=O)C(=O)N[C@@H](CC(=O)O)C(=O)N[C@@H](Cc1ccccc1)C(=O)N[C@H](C(=O)N[C@@H](CCC(N)=O)C(=O)N[C@@H](Cc1c[nH]c2ccccc12)C(=O)N[C@@H](CC(C)C)C(=O)N[C@@H](CC(C)C)C(=O)N[C@@H](CCCCNC(=O)COCCOCCNC(=O)COCCOCCNC(=O)CC[C@H](NC(=O)CC[C@H](NC(=O)CC[C@H](NC(=O)CCCCCCCCCCCCCCCCC(=O)O)C(=O)O)C(=O)O)C(=O)O)C(=O)N[C@H](C(N)=O)[C@@H](C)O)C(C)C
What is called IC50 is the concentration at which inhibition is half-maximal. As to B1, the 50% inhibitory concentration (IC50) with human GLP-1 receptor [1] was 1.5 nM; in the test with human glucagon receptor [4], 16.2 nM. The “EC50 GlucR, CRE luciferase reporter gene assay in BHK cells” value (shortened to “EC50 GlucR”) in the test with human glucagon receptor [2] was determined as 0.049 nM. For the same molecule, the “EC50 GLP-1R, CRE luciferase reporter gene assay in BHK cells” value (“EC50 GLP-1R” below) in the test with human GLP-1 receptor [3] was determined as 0.005 nM.

B2: N^ε28-[(4S)-4-carboxy-4-[[(4S)-4-carboxy-4-[[2-[2-[2-[[2-[2-[2-[[(4S)-4-carboxy-4-(17-carboxyheptadecanoylamino)butanoyl]amino]ethoxy]ethoxy]acetyl]amino]ethoxy … (peptide)
peptide: H[Aib]QGTFTSDLSKYLESKAAREFVQWLLK([γGlu-γGlu-AEEA-AEEA-γGlu-C18 diacid])T-NH2
modifications: N-terminus assumed
SMILES: CC(C)C[C@H](NC(=O)[C@H](Cc1ccc(O)cc1)NC(=O)[C@H](CCCCN)NC(=O)[C@H](CO)NC(=O)[C@H](CC(C)C)NC(=O)[C@H](CC(=O)O)NC(=O)[C@H](CO)NC(=O)[C@@H](NC(=O)[C@H](Cc1ccccc1)NC(=O)[C@@H](NC(=O)CNC(=O)[C@H](CCC(N)=O)NC(=O)C(C)(C)NC(=O)[C@@H](N)Cc1c[nH]cn1)[C@@H](C)O)[C@@H](C)O)C(=O)N[C@@H](CCC(=O)O)C(=O)N[C@@H](CO)C(=O)N[C@@H](CCCCN)C(=O)N[C@@H](C)C(=O)N[C@@H](C)C(=O)N[C@@H](CCCNC(=N)N)C(=O)N[C@@H](CCC(=O)O)C(=O)N[C@@H](Cc1ccccc1)C(=O)N[C@H](C(=O)N[C@@H](CCC(N)=O)C(=O)N[C@@H](Cc1c[nH]c2ccccc12)C(=O)N[C@@H](CC(C)C)C(=O)N[C@@H](CC(C)C)C(=O)N[C@@H](CCCCNC(=O)CC[C@H](NC(=O)CC[C@H](NC(=O)COCCOCCNC(=O)COCCOCCNC(=O)CC[C@H](NC(=O)CCCCCCCCCCCCCCCCC(=O)O)C(=O)O)C(=O)O)C(=O)O)C(=O)N[C@H](C(N)=O)[C@@H](C)O)C(C)C
As to B2, the half-inhibitory concentration (IC50) was 0.2 nM in the test with human GLP-1 receptor [1] and 61 nM with human glucagon receptor [4]. The “EC50 GlucR” value in the test with human glucagon receptor [2] worked out at 0.506 nM. Further, the “EC50 GLP-1R” value with human GLP-1 receptor [3] was 0.0119 nM.

B3: N^ε28-[2-[[(2S)-2-[[(2S)-4-carboxy-2-[[2-[[(2S)-2-[[(4S)-4-carboxy-4-[[(4S)-4-carboxy-4-(17-carboxyheptadecanoylamino)butanoyl]amino]butanoyl]amino]-3-hydroxypr … (peptide)
peptide: H[Ac4c]QGTFTSDLSKYLEERRARDFVQWLLK([Gly-Ser-Glu-Gly-Ser-γGlu-γGlu-C18 diacid])T-NH2
For B3, the IC50 in the test with human GLP-1 receptor [1] turned out to be 0.2 nM; with human glucagon receptor [4], 3.9 nM. For the same molecule, in the test with human glucagon receptor [2], the “EC50 GlucR” value is 0.113 nM. Besides, the “EC50 GLP-1R” value with human GLP-1 receptor [3] was 0.0058 nM.

B4: N^ε28-[2-[[(2S)-2-[[(2S)-4-carboxy-2-[[2-[[(2S)-2-[[(4S)-4-carboxy-4-[[(4S)-4-carboxy-4-(17-carboxyheptadecanoylamino)butanoyl]amino]butanoyl]amino]-3-hydroxypr … (peptide)
peptide: H[Ac4c]HGTFTSDLSKYLESRRAQDFVQWLLK([Gly-Ser-Glu-Gly-Ser-γGlu-γGlu-C18 diacid])T-NH2
B4: the half-inhibitory concentration (IC50) with human GLP-1 receptor [1] was 2.6 nM; with human glucagon receptor [4], 0.7 nM. The “EC50 GlucR” value with human glucagon receptor [2] was 0.001 nM. Also, the “EC50 GLP-1R” value in the test with human GLP-1 receptor [3] was determined as 0.003 nM.

B5: N^ε28-[2-[[(2S)-2-[[(2S)-4-carboxy-2-[[(2S)-2-[[(4S)-4-carboxy-4-[[(4S)-4-carboxy-4-(17-carboxyheptadecanoylamino)butanoyl]amino]butanoyl]amino]-3-hydroxypropan … (peptide)
peptide: H[Aib]QGTFTSDLSKYLDLRRARDFVQWLLK([Gly-Ser-Glu-Ser-γGlu-γGlu-C18 diacid])T-NH2
B5: the 50% inhibitory concentration (IC50) was determined as 1.1 nM with human GLP-1 receptor [1] and 18.4 nM with human glucagon receptor [4]. For the same molecule, the “EC50 GlucR” value with human glucagon receptor [2] turned out to be 0.0305 nM. Also, the “EC50 GLP-1R” value with human GLP-1 receptor [3] was determined as 0.027 nM.

B6: N^ε28-[2-[[(2S)-2-[[(2S)-4-carboxy-2-[[2-[[(2S)-2-[[(4S)-4-carboxy-4-[[(4S)-4-carboxy-4-(17-carboxyheptadecanoylamino)butanoyl]amino]butanoyl]amino]-3-hydroxypr … (peptide)
peptide: H[Aib]HGTFTSDLSKYLESRRARDFVQWLLK([Gly-Ser-Glu-Gly-Ser-γGlu-γGlu-C18 diacid])T-NH2
Regarding B6, the IC50 worked out at 0.2 nM with human GLP-1 receptor [1] and 0.1 nM with human glucagon receptor [4]. In addition, the “EC50 GlucR” value in the test with human glucagon receptor [2] was found to be 0.002 nM. Further, the “EC50 GLP-1R” value with human GLP-1 receptor [3] is 0.004 nM.

B7: N^ε28-[(4S)-4-carboxy-4-[[2-[2-[2-[[2-[2-[2-[[(4S)-4-carboxy-4-[[(4S)-4-carboxy-4-(17-carboxyheptadecanoylamino)butanoyl]amino]butanoyl]amino]ethoxy]ethoxy]acet … (peptide)
peptide: H[Aib]HGTFTSDLSKYLESRRAREFVAWLLK([γGlu-AEEA-AEEA-γGlu-γGlu-C18 diacid])T-NH2
modifications: N-terminus assumed
SMILES: CC(C)C[C@H](NC(=O)[C@H](Cc1c[nH]c2ccccc12)NC(=O)[C@H](C)NC(=O)[C@@H](NC(=O)[C@H](Cc1ccccc1)NC(=O)[C@H](CCC(=O)O)NC(=O)[C@H](CCCNC(=N)N)NC(=O)[C@H](C)NC(=O)[C@H](CCCNC(=N)N)NC(=O)[C@H](CCCNC(=N)N)NC(=O)[C@H](CO)NC(=O)[C@H](CCC(=O)O)NC(=O)[C@H](CC(C)C)NC(=O)[C@H](Cc1ccc(O)cc1)NC(=O)[C@H](CCCCN)NC(=O)[C@H](CO)NC(=O)[C@H](CC(C)C)NC(=O)[C@H](CC(=O)O)NC(=O)[C@H](CO)NC(=O)[C@@H](NC(=O)[C@H](Cc1ccccc1)NC(=O)[C@@H](NC(=O)CNC(=O)[C@H](Cc1c[nH]cn1)NC(=O)C(C)(C)NC(=O)[C@@H](N)Cc1c[nH]cn1)[C@@H](C)O)[C@@H](C)O)C(C)C)C(=O)N[C@@H](CC(C)C)C(=O)N[C@@H](CCCCNC(=O)CC[C@H](NC(=O)COCCOCCNC(=O)COCCOCCNC(=O)CC[C@H](NC(=O)CC[C@H](NC(=O)CCCCCCCCCCCCCCCCC(=O)O)C(=O)O)C(=O)O)C(=O)O)C(=O)N[C@H](C(N)=O)[C@@H](C)O
Turning to B7, the half-maximal inhibitory concentration (IC50) with human GLP-1 receptor [1] was determined as 1.5 nM; with human glucagon receptor [4], 0.8 nM. In the test with human glucagon receptor [2], the “EC50 GlucR” value worked out at 0.0029 nM. Further, in the test with human GLP-1 receptor [3], the “EC50 GLP-1R” value worked out at 0.0195 nM.

B8: N^ε28-[(4S)-4-carboxy-4-[[(4S)-4-carboxy-4-[[2-[2-[2-[[2-[2-[2-[[(4S)-4-carboxy-4-(17-carboxyheptadecanoylamino)butanoyl]amino]ethoxy]ethoxy]acetyl]amino]ethoxy … (peptide)
peptide: H[Aib]QGTFTSDLSKYLDSRRAREFVQWLLK([γGlu-γGlu-AEEA-AEEA-γGlu-C18 diacid])T-NH2
modifications: N-terminus assumed
SMILES: CC(C)C[C@H](NC(=O)[C@H](Cc1ccc(O)cc1)NC(=O)[C@H](CCCCN)NC(=O)[C@H](CO)NC(=O)[C@H](CC(C)C)NC(=O)[C@H](CC(=O)O)NC(=O)[C@H](CO)NC(=O)[C@@H](NC(=O)[C@H](Cc1ccccc1)NC(=O)[C@@H](NC(=O)CNC(=O)[C@H](CCC(N)=O)NC(=O)C(C)(C)NC(=O)[C@@H](N)Cc1c[nH]cn1)[C@@H](C)O)[C@@H](C)O)C(=O)N[C@@H](CC(=O)O)C(=O)N[C@@H](CO)C(=O)N[C@@H](CCCNC(=N)N)C(=O)N[C@@H](CCCNC(=N)N)C(=O)N[C@@H](C)C(=O)N[C@@H](CCCNC(=N)N)C(=O)N[C@@H](CCC(=O)O)C(=O)N[C@@H](Cc1ccccc1)C(=O)N[C@H](C(=O)N[C@@H](CCC(N)=O)C(=O)N[C@@H](Cc1c[nH]c2ccccc12)C(=O)N[C@@H](CC(C)C)C(=O)N[C@@H](CC(C)C)C(=O)N[C@@H](CCCCNC(=O)CC[C@H](NC(=O)CC[C@H](NC(=O)COCCOCCNC(=O)COCCOCCNC(=O)CC[C@H](NC(=O)CCCCCCCCCCCCCCCCC(=O)O)C(=O)O)C(=O)O)C(=O)O)C(=O)N[C@H](C(N)=O)[C@@H](C)O)C(C)C
Regarding B8, the half-maximal inhibitory concentration (IC50) in the test with human GLP-1 receptor [1] is 0.3 nM; with human glucagon receptor [4] it was 2.1 nM. For the same molecule, the “EC50 GlucR” value with human glucagon receptor [2] came to 0.0063 nM. In the test with human GLP-1 receptor [3], the “EC50 GLP-1R” value is 0.0053 nM.

B9: N^ε28-[2-[[(2S)-2-[[(2S)-4-carboxy-2-[[2-[[(2S)-2-[[(4S)-4-carboxy-4-[[(4S)-4-carboxy-4-(17-carboxyheptadecanoylamino)butanoyl]amino]butanoyl]amino]-3-hydroxypr … (peptide)
peptide: H[Ac4c]QGTFTSDLSKYLDLKRAREFVQWLLK([Gly-Ser-Glu-Gly-Ser-γGlu-γGlu-C18 diacid])T-NH2
Consider B9, for which the IC50 is 0.2 nM with human GLP-1 receptor [1] and 3.1 nM in the test with human glucagon receptor [4]. For the same molecule, in the test with human glucagon receptor [2], the “EC50 GlucR” value was determined as 0.008 nM. In addition, in the test with human GLP-1 receptor [3], the “EC50 GLP-1R” value was 0.044 nM.

B10: N^ε28-[(4S)-4-carboxy-4-[[(4S)-4-carboxy-4-[[2-[2-[2-[[2-[2-[2-[[(4S)-4-carboxy-4-(17-carboxyheptadecanoylamino)butanoyl]amino]ethoxy]ethoxy]-acetyl]amino]ethox … (peptide)
peptide: H[Aib]QGTFTSDLSKYLDLKRAREFVQWLLK([γGlu-γGlu-AEEA-AEEA-γGlu-C18 diacid])T-NH2
On to B10, for which the half-inhibitory concentration (IC50) in the test with human GLP-1 receptor [1] was 0.5 nM; in the test with human glucagon receptor [4] it was 4 nM. Further, in the test with human glucagon receptor [2], the “EC50 GlucR” value was found to be 0.0087 nM. In the test with human GLP-1 receptor [3], the “EC50 GLP-1R” value was 0.009 nM.
